The DeepSol protein solubility set

experiment: soluble on expression in E. coli; label from the status in PepcDB or PDB records

Sequence | soluble on expression in E. coli
MSMPKCEICNDDYSSEDGDHSPRNLKCSHTLCEGCIKKMLGNSKIVCPFCREPTDMPGNKMESLHKNFALIQAIQLFAKTTKITEVEEPMLEKCKHHPDYLVETVCVEEDCSESGKYMCRKCVSTLSHLHHTKKSLIAEMEKSRELLQGRINRLNKTIGEIDQDVRKLRMSQIAFREGGNNYQQKANEITTFYSRIREMVNEREKEALVKLKEVAKSILDENDSALPPLLRSHQKLTEYVRKATEAKKRNNAIACITAAEDLLNKTKDCCDEEYYTIESQDINVCIKPIDIPVATITRK | not soluble
MSMVETAPSKIQVRDLNFYYGKFHALKNINLDIAKNQVTAFIGPSGCGKSTLLRTFNKMYSLYPEQRAEGEILLDGDNILTNTQDIALLRAKVGMVFQKPTPFPMSIYDNIAFGVRLFEKLSRADMDERVQWALTKAALWNETKDKLHQSGYSLSGGQQQRLCIARGIAIRPEVLLLDEPCSALDPISTGRIEELITELKQDYTVVIVTHNMQQAARCSDHTAFMYLGELIEFSNTDDLFTKPAKKQTEDYITGRYG | not soluble
MSNEQLADLTQPQRDRLAFVELRVRFIGEIRRQDLVTRFGIQSAAASRDLALYKELAPGNIDYDSKGKSYVLGPDFRPVFDFPPERVLSWLTQGFGDGEPMRLKAWVASESPSRLTHPDLDVLASVTRAIHQECPLGIEYHSISSGRTEREIVPFALIDNGLRWHVRAFDRKSQEFRDFVITRIKRPVLIRDAEVQSHERSDQDIQWTRIVELEMVPHPDQPRPEITEMDYGMVRGSLRMKLRAATAGYILRQWSVDCSPDHSLRGYEFRLWLKDHLALYGVKNAVLAPGYRSPDQNKGEQ | soluble
MSNNETMMFNVEKEKVNEARELLVSVYKALKEKGYNPINQIVGYILSGDPTYITNHLDARSSIRKVERDELLEEILRCYLEECIGKEGSV | soluble
MSNNKQAWTGQLDLSVFNNGKKSVARDVFFEKALKVMRPVYLNQSDIPTFYIVNVGGGYLDGDRYTMNFNIDSDAKVILTSQGATKIYKTLNDHVEQYQTFNIKNNGYAEYVGDPIIAFENAKFYQHNVFNLESTASLFYTDILTPGYSKSDKRFSYTYMHLLNEIYVDDALVTFDNMLLDPQKQNVDGLGYMEDYTHLGSCYFIHPSVNQKFIEQVYEEIKHFQHKYDCRFGITHLPTHGFSLRILSNKTQVIESIITAVQCYVVKQIFDRDVDFLRKYLEHHHHHH | not soluble
MSNPTKISILGRESIIADFGLWRNYVAKDLISDCSSTTYVLVTDTNIGSIYTPSFEEAFRKRAAEITPSPRLLIYNRPPGEVSKSRQTKADIEDWMLSQNPPCGRDTVVIALGGGVIGDLTGFVASTYMRGVRYVQVPTTLLAMVDSSIGGKTAIDTPLGKNLIGAIWQPTKIYIDLEFLETLPVREFINGMAEVIKTAAISSEEEFTALEENAETILKAVRREVTPGEHRFEGTEEILKARILASARHKAYVVSADEREGGLRNLLNWGHSIGHAIEAILTPQILHGECVAIGMVKEAELARHLGILKGVAVSRIVKCLAAYGLPTSLKDARIRKLTAGKHCSVDQLMFNMALDKKNDGPKKKIVLLSAIGTPYETRASVVANEDIRVVLAP | soluble
MSNRVPTNILTGFLGVGKTTTILNLLKNKPENENWAVLVNEFGEIGIDGALMTDQGALIKEVPGGCMCCTAGVPMSVGITALLRQKPDRLLIEPTGLGHPKQVIATLTSEQYLPYVDLKATIALVDPRNLSDEKYTSNQNFVDQLDSADVVIGSKVDLCSSHDIDVFNDWVTDQTPAKVFSKLIHNGELPIEVLDIERVHGSASSHIETHHHEHAHQEPQFQLPPGEAFIRKENKGQGYFSCGWLFGAEYKFDFDKLFSMLSDLTAERVKAVVNTNQGCYAFNVANRVVSVNEISLEGFESRLEVIDSQLLPWDELEQILLQLAGVEGLEHHHHHH | soluble
MSNSLEERLRANSSAFDGLLALIPAKYYYDEKSQEQWKAKKKTKEQSKNDKLKKLDPEQRDDETSSTLEVMKKKEKDAKPVVLPGEKFKHMKMQKQKEATSKVEGDSDLNVEVNDPMIIAPDEDEEEEEDIKVIFDDEGNEIPLESKKDTTEPDRSVEKKSITEEEKLQRKKNLEALRSKLQAKISDMKSKRKAPGSREAILAQRKRKEELKKRKRLESEQEQDQDEIASDSDMEDIDSDLENNSKKRFKKGKKDSEINADGVMFQNIIFDDGARATSDLQRLRKAGRTKGPAKNDVKSHLKLLEAKKNKMEAKDELEQIKQKEKEKWQKAMLQAEGIKIRDDEKLLRKAIKRKEAQKRKSAIEWSERKRVVEDTISERQKRREENLRIRKDNKGKKRNKQEKMKRKYVGSAVPKKRAGFEGRLKTGKKKGGPK | not soluble
MSNSNKLIAEKNGSRYGRMIHPWLRKKQDMLADTPSRREGMTYEEELSKRQQGGVFIFDIAMQLTHGKGEHGLSGVAATLFNRFFNVHSLKRCDFRDVAAACVFLAGKNEDAPKKLKYVVTQLWQFKYPHNKQFQSEQHFLDQCNVVTLIEDVLLKTISFDINVDLPHQYVLKLMRDVEKGRNVYKDMVKTAYYMATDVLIITDWSVRYSCASIATACVNIAAFFHNINMDDIVPFELSDRWYRLEDQSMTREEVEAMTKEFLDIFSRNPQFHIGSLKKIDPLGKVKIVGMPPQVSSTVTPSGSSSNLKKIDLESYKGRPKPLSNSSDSPSTRPSFLPDVKNQKVVEQELMEQRMKEAAQQKIHRNGHRPSSSSHPLHHHSTSSSASNNSNHQNRSSSGLSAHQHQKPYNEDSRSAKRSMMYEETNSSKKPRIDYKMSFVASSSTTIATMHNDHFSQTTHQQNISTYARGVNEMMLNQVAPPPLMSVSAQPSTYQKMCMEYQRNPADSRHTMSSTQQISPPDEPSPPVSQILLPPPPPPPILPPRLDEMEEGELV | not soluble
MSNSSKDADSNLKSTVKPRYLILGSGSIGFALAKELRESNKLVIIVDKDEAKIETLREEGFEAILGDISDPELVNNIDLKNVVAILFLSSNNEANRKGIENFKKVVNPDIQIFSRASDIINKEKMEDLGSDYVFMPSKLVASSLSRSLERAESVHRGNRLARWLKGIRDKKLAIVIHDNPDPDAISSGLALKEIAKSLGVEASILYHGRIGHQENKAFVNLLGIDLGKMEEHDLKDFDEIALIDCSIPGVNNMVPPNSYVGIVIDHHPPGETEIKAEYIDIRPNFGATATIMTKYLQQLNINISKTLATALLYGIRTDTQDFKRKTDPADLSAASYLYPLSNHGILDQLEQPSMAIETLEVLGEAIRNRQVLGSYLLSNVGNIRDRDTLPQAADYLLSLEGISTTVVFGVSEDRIYISGRSTDIRVNLGEIMRQAFGEDAGGHANAAGAQIPLGVFSATKDRQTLLRLVNEAVVKRFLSAVGVESTGE | soluble
MSNVAENNDGVYDAPTGITAPPIDELLKHVSSKYALVIFAAKRARQINSYYQQADEGVFEFVGPLVTPEAQEKPLSIAMREIEAGLLDHEEG | not soluble
MSNVAKSYKSSDPVIAYCSEHTTIQSPLQAELLKETLDNAPMSMMLGAPEVLTFGQNFIRSFGGRRVIDVGTYTGASALAWALAVPDDGEVFTFDIDHTNYKKFGVPIISKCEKTFKKIRAIEGSALDGLDKLIADGQSGTFDFAFIDADKVNYSNYYDRAVTLLRKGGVIFVDNSLWNGSVCDPARRTEPSTVAIHQANDKIFKDDRTYSALINLGDGTHIAFKK | not soluble
MSNVCIVYSSTHHGNTEKVLNKIKEKFPETVLIKAGDFNPDDFNRYEAIGFASGIFYFKFAKPVDKLFEQALVGSVQKLFFIYTAGAVNAGFEKTLRKKTEQSGKICMGIFGCKGFDTFGPLKLIGGLNKNSPNEKDFKNAIDFFEKNIINALEHHHHHH | soluble
MSPFGKIAIVGSGLVGSSWATIFASSGYEVQMYDISEKQLQVALENVEKNLRKLDEHGLQRGNLSADEALLRVSTTTSLNEVMKNAIYMQESALEDLNFRIQFYKVIDEIADPTTILASSTSTIPASKFTDGLINKERCLIVHPVNPPLFLPLTELVPAPWTSQDTVDRAAEIMRSVKQEPVKLKKEVLGFVVNRLQFALLAETWRLVADGVIGVNDVDAVMSAGLGPRYAFNGTCETVHLNAFGVRDYFKRYAAGITAVLKDMGPIPDFTDEKVINKLEEELEPKMSTLNIRKHQAEREEKLVEIAKLKKDLNL | not soluble
MSPKSVVVTGSNRGLGFGLVQQFLKDPNVQHVIATARDVDKATALKGICDPRLHILQLSLGSDESIANFAEKVSEIVGESGLTLLINNAAVMLPYVTKQKPDRKVVLDLFESNTIGPMMLTQSLVPLIIKASKRQEGDTLSVSRGAIINIASEFLGSISENTSGSGEYKAMAYRMTKCAVNQFTKTLSIDLKDDHILTAGICPGMVQTDMSKGKGQLTIEESSSQILAAFNKLGATHNGGYFRRDLSIIPY | not soluble
MSPLNLHTDTTPSLLTFSDVKSFEKIYTMYWARVYATCYNTIKEREVAKEMVQDIFKSLWERKDELEIKTSVEHYLVRAAKFKVFEYIRNKTNQKKHTACALEDYCSATNCTEDAILYSNLTEKVGVLVDRLPCQCRNVYTLSRTEGLTNKEIATRLLISERAVEQHITKALRFLRENLQEYRS | not soluble
MSPSIFPPINFLFQNSALLSSFAAQKALSNGHPSGSSLAALEKLSKAFRRPDLHIEKLASSCIDKQKDLKMTNVVPSRNRYGRPYISGRPLLTCDRQKIVECYKKGMKKIHIAKQLGITHSCVSKVLRR | not soluble
MSPVVSEASPERWDDETDVLVIGSGAGGLSAALFAAQAGLRVLICEKLAYVGGTTATSGGGIWVPGTKAGLAAGDTLEAARTYLKALLGDFYQEEVIDTYLATGGKVIDFLNENTEVKFDLSSWPDYRSSLPGGATRGRSLFPQPFDGKKLGRNFSLLHPPLHRLMVLGGLMLGPEEVHDFLRPFSSPRALMRVLRKLLRYGMDRIRYARGTDLRSGNALAARLLYSVDKLGCRILTQADLESLAIDHDRVIGATVVVGGVPKRIRASKAVLLATGGFAHNQEMLRRYGPATPHRFSLCNPACTGAGIQAALDAGASVDRELSSVGFWTPASASREKNGADTPVIYGYLDRGRPGVIAVNEQGERFVNEANSYHDIVTAIFANGGADGKPFYFITDREFVRRHGLGLIRPWPWNRSLRPWIRRGYITVASTLDKLGPKIGIDPGALAAAVQRHNQSARTGQDPDFHKGASAYNRMFGHNMTWPNPNLAPIETPPFVALRIHPATIGTAMGLKTSASGQALNAAGQPISGLYACGNNQASPFRGFYPGGGSTLGPAIVGAYLAVQSLSKPLEHHHHHH | soluble
MSQESSVLSESQEQLANNPKIEDTSPPSANSRDNSKPVLPWDYKNKAIEIKSFSGYKVNFTGWIRRDVREERQRGSEFTASDVKGSDDKATRKKEPADEDPEVKQLEKEGEDGLDS | soluble
